Test results from US20160289284.

Tested on: ZF6-DBD (AAV8-CMV delivered) (artificial (designed))
Test: cell_activity
Settings: pig retina, rhodopsin transcript by qRT-PCR, 15 days after AAV8 injection

Substance “porcine RHO proximal promoter / TSS region” has an activity of 45 % repression.
